Test results from patent US20160175358A1.

Biological target: δ1 TCR on δ1 T-cells in PBMCs (human) (UniProt O00548)
Assay: cell-based or functional assay

UniProt O00548, sequence (O00548 18-723, stated change not applied): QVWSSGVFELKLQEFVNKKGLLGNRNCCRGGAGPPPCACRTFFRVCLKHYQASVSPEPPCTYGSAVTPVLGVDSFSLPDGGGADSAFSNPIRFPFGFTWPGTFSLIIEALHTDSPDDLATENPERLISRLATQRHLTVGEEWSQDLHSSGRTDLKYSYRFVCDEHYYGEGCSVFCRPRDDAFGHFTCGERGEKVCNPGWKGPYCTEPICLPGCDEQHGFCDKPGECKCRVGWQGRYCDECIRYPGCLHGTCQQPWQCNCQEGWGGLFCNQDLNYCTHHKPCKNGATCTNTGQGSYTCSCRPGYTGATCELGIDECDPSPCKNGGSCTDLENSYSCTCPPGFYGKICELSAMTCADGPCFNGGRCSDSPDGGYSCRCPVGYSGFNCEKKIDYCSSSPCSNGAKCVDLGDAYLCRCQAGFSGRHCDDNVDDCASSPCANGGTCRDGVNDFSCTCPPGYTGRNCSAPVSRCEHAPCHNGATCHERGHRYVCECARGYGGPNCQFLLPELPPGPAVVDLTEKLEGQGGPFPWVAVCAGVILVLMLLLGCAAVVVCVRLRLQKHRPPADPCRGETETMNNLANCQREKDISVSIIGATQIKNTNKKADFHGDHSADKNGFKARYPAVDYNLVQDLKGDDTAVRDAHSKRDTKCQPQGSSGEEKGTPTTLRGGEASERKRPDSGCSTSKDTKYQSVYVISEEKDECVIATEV

Substance anti-TCR Vδ1 TS-1 antibody has an induced proliferation, relative to TS8.2 of 3 fold.
